Consider ten molecules from patent US20250355001A1 (GTINVENT, published 2025).

Assay [1] deals with T1, full length human tau protein 2N4R (hT40) (human, UniProt P10636 1-758).
T1 construct: recombinant; also called T441
Nature of the assay: hT40 ELISA. The protocol:
(§1) A series of binding ELISA was performed using various truncated versions of the tau protein and 13mer peptide libraries spanning the entire hT40 molecule for mapping the epitopes of anti-tau scAbs (Full list of protein antigens used is given in Table 14). In general, ELISA plates were coated with 1 μg/ml hT40 or dGA or dGAE or other truncated versions of the protein and in the case of biotinylated peptides, plates were coated with 5 μg/ml Streptavidin followed by 1 μg/ml biotinylated peptide. The plates were blocked with 2% MPBS and scAb samples added at desired starting concentrations and double diluted across the plate. Binding was detected using anti-Human C Kappa HRP conjugated secondary antibody and the resulting immunoreaction was developed and absorbance values measured as described above.
Background: In an ELISA, binding on a coated surface is turned into a signal by an enzyme label.

In assay [2] the target is T2, biotinylated tau peptide 412-441 (N-terminal biotin).
T2 peptide: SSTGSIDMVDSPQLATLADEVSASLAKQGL
Briefly: ELISA on biotinylated 412-441 peptide. The procedure:
as §1

In assay [3] the target is T1, full length human tau protein 2N4R …. Nature of the assay: hT40 ELISA. This is another data set of the same source.
Target sequence in this assay (P10636 other isoform, or with tags, fused parts or gaps limits assumed): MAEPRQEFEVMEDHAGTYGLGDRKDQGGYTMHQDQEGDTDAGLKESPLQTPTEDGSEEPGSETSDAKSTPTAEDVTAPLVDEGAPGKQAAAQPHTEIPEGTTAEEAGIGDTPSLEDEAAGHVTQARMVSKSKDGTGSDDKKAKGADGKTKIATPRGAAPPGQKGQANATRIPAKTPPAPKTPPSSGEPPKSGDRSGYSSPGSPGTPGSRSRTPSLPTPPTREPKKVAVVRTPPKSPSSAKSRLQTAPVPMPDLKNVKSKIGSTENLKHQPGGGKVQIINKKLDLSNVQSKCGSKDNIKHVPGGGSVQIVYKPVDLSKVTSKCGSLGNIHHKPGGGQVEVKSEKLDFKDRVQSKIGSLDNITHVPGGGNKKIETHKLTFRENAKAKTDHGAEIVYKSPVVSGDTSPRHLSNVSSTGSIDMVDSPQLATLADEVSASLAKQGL
Assay [4] has the same target. Nature of the assay: SPR, hT40 immobilised, mAb analyte. The protocol:
For anti-tau mAb SPR measurements, htau40 was conjugated to the surface of a CM5 sensor chip using amine coupling as explained previously. Briefly, 2 μg/mL htau40 in 10 mM Sodium acetate buffer (pH 4.0) was passed over the activated chip surface (EDC/NHS) in flow cell 2 for a period for 45 s followed by blocking with 1 M ethanolamine-HCl PH 8.5. Flow cell 1 was set up as reference control and blocked simultaneously. Final immobilisation level of htau40 (Rmax) was approximately 250 RU. […] The mAb was added for a 120 s association period and 600 s dissociation period followed by a regeneration cycle of 30 s injection of glycine buffer pH 1.5 in between each cycle. Binding responses were analysed in Biacore X100 evaluation software and data fitted to a 1:1 binding model to obtain kinetic and affinity characterisation.
For anti-tau mAb SPR measurements (Biacore X100™) and epitope mapping, the same methodologies described above (see Example 16) were followed.
Target sequence in this assay (P10636 other isoform, or with tags, fused parts or gaps limits assumed): as above

The target of a further assay is T3, tau fragment 1-49 (human).
T3 construct: also called Tau 1-49
T3 peptide: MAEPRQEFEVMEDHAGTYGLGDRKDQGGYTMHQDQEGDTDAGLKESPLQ
Nature of the assay: direct ELISA. The procedure:
as §1

Assay [5] addresses T1, full length human tau protein 2N4R …. Briefly: SPR, scAb captured, tau analyte. The protocol:
(§2) The capture antibody was diluted 1/100 in 10 mM Sodium acetate buffer pH 5.0 and passed over the activated chip surface for a period of at least 420 s. Final ligand immobilisation levels over 12,000 RU were deemed to be satisfactory.
(§3) The scAb to be tested was added only to flow cell 2 so that flow cell 1 could act as a control to subtract any interaction with the analyte and the chip surface. […] The multi-cycle protocol was as follows-Three start-up cycles composed of an initial capture, to the desired level, of the scAb to be tested was performed followed by a 30 s injection of glycine buffer pH 2.0 after each cycle to regenerate the chip surface. […] The target was added for a 120 s association period and 420 s dissociation period followed by another regeneration, 30 s injection of glycine buffer pH 2.0 in between each cycle.
(§4) The single cycle kinetics protocol was similar and utilised the same level of scAb capture. […] In single cycle kinetics the regeneration step was performed only after the final analyte concentration was added. Binding responses were analysed in Biacore X100 evaluation software and data fitted to a 1:1 binding model to obtain kinetic and affinity characterisation.
Target sequence in this assay (P10636 other isoform, or with tags, fused parts or gaps limits assumed): as the sequence (P10636 other isoform, or with tags, fused parts or gaps limits assumed) above
For orientation: SPR reads the build-up and loss of mass on a sensor chip optically.

The target is the same in assay [6]. Nature of the assay: SPR, summary table. The protocol:
as §2, §3, §4
Target sequence in this assay (P10636 other isoform, or with tags, fused parts or gaps limits assumed): as the sequence (P10636 other isoform, or with tags, fused parts or gaps limits assumed) above

A further assay deals with dGA (tau 297-390) (human, UniProt P10636 614-707). Nature of the assay: SPR, scAb captured, tau analyte. The protocol: as §2, §3, §4
For assay [7], the target named is T1, full length human tau protein 2N4R …. Nature of the assay: sandwich ELISA, S1D12 mAb capture, scAb detection. The protocol: Full length tau (hT40), at 1 μg/ml starting concentration was added to designated wells and double diluted across rest of the plates and left to incubate at R/T for 1 h. A series of detection scAbs with varying epitope recognition properties were added at 10 μg/ml to designated wells (FIG. 22). For colourimetric detection HRP conjugated anti-HuCk secondary antibody was used and the resulting immunoreaction was developed and absorbance at 450 nm measured as described previously. Cut-off point for a positive binding event was an absorbance value of 0.3 following background subtraction. In order to enhance the assay sensitivity, a chemiluminescent detection method was adopted where 50 μL SuperSignal ELISA Femto Substrate (Thermo Scientific) was added to each well following incubation with anti-HuCK HRP antibody and subsequent washing. The luminescence was read using Clariostar Plus microplate reader. A further modification to this protocol was done where various detection scAbs were directly conjugated with HRP and detected using chemiluminescent protocol as before.
Target sequence in this assay (P10636 other isoform, or with tags, fused parts or gaps limits assumed): as the sequence (P10636 other isoform, or with tags, fused parts or gaps limits assumed) above

For assay [8] the target is unchanged. Briefly: Biacore. The procedure: as §2, §3, §4
Target sequence in this assay (P10636 other isoform, or with tags, fused parts or gaps limits assumed): as the sequence (P10636 other isoform, or with tags, fused parts or gaps limits assumed) above

Read-outs that look alike come from different tables or passages of the source.

The EC50 (read off the curve) is the concentration that produces a half-maximal response. A low value points to a more potent agent. In general, Kd refers to the free concentration of one partner at which half of the binding sites on the other are occupied at equilibrium, for simple one-to-one binding. Read a high Kd as weaker binding. As usually defined, the koff is the rate constant with which the complex falls apart. A lower koff goes with a long-lived complex. Broadly, the kon is a measure of how fast the partners come together. A lower kon goes with slow association.

dGA (tau 297-390), sequence (P10636 614-707 limits assumed): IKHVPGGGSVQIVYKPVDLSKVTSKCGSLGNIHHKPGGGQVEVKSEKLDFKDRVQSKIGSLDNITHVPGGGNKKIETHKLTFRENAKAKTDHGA

B1: 412E6 (scFv)
scAb: QVQLQESGPSLVKPSETLSLTCTVSGFSLTNYGVGWVRQAPGKALEWLGNIYSGGSTYYNPALKSRLSITRDTSKSQVSLSLNSVTLEDTAVYYCGRGGVGSVDVWGPGLLVTVSSEGKSSGASGESKVDDQAVLTQPPSVSGSPGQRVSITCSGGRNNIGRGTFVDWYQQLPGSGLKTVIYGTDRRPPGVPDRFSGSKTGNAATLTITSLQAEDEADYWCATYDYSNDMIILGSGTRLTVLG
With B1, the “EC50 (read off the curve)” value in assay [1] is around 6 µg/mL; in assay [2], around 2 µg/mL; in assay [3], around 6 µg/mL.

B2: MD9 mAb (antibody, V domains shown)
VH: QVRLQESGPSLVKSSQTLSLTCTVSGFSLTRESIAWVRQAPGKVPEWLGGVGIDGTSYYSPALKSRLSITRDTSKSQASLSLSSVATEDTAMYYCARNYIDFEYWGPGLLVTVSS
VL: QAVLTQLSSVSGSLGQRISITCSGSSSNVGIYDVSWFQQLPGSGLRTVIYGTNNRPSGVPDRFSGSRSGNTATLTISSLQSEDEAIYYCAAGDSSTIAVFGSGTRLTVLG
Turning to B2, in assay [4], the Kd amounted to 22 nM, the koff came out at 0.00146 s⁻¹ and the kon is 66200 M⁻¹ s⁻¹.

B3: 3bD11 mAb (antibody)
chain: RVRLQGSGPSLVKPSQTLSLTCTVSGFSFDSYYVGWVRQAPGKALEWLGNIYSTGRAFYNPALKSRLSITRDTSKSQVSLSVSSVTIEDTALYYCVRGSYYHGGGNGMVDFFDYWSPGLLVTVSSEGKSSGASGESKVDDQVVRTQPSSVSGSLGQRVSITCSGSSSNVGYGNYVGWFQQVPGSAPKLLIYAATSRASGVPDRFSGSRSGNTATLTIDSLQAEDEADYYCSSYQRGNTGVFGSGTRLTVLG
In assay [4], B3 gave a Kd of 1.49 nM, a koff of 0.00398 s⁻¹ and a kon of 2.67e+06 M⁻¹ s⁻¹.

B4: 3bG4 scAb (scFv, not shown: small tags and cut ends)
scFv: QVQLQESGPSLVKPSQTLSLTCTISGFSLISNGVGWVRQAPGKVPEWVGDIASSGKAYSNPALKSRLSITRDTSKSQVSLSLRSVTTEDTAVYYCVRCRDGGVTYGYDIDYWGPGLLVTVSSEGKSSGASGESKVDDQAVLTQPSSVSKSLGQSVSITCSGSTSNVGSGNDVSWFQQVPGSAPKLLFYGATNRASGVPDRFSGSRSGNTATLTITSLQAEDEADYYCGSYDSNSGGIFGSGTRLTVLG
notes: scAb
Turning to B4, the binding result with tau fragment 1-49 is recorded as “binds”. In assay [5], binding was characterised by a dissociation constant (Kd) of 8.9 nM, the koff was 0.0597 s⁻¹ and the kon is 6.67e+06 M⁻¹ s⁻¹.

B5: 3aH6 scAb (scFv, not shown: small tags and cut ends)
scFv: QVQLQESGPSLVKPSQTLSLTCTVSGFSLSSNGVGWVRQAPGKVPEWLGDISSVGKKYANPALKSRLSFTRDTSKSQVSLSLSSVTTEDTAVYYCVKCRDGGVTYGYDIDYWGPGLLVTASSEGKSSGASGESKVDDQAVVTQPSSVSGSLGQSVSITCSGSSGNVGYGDYVSWFQQFHGSAPKLLIYGATNLASGVPARFSGSRSGNTATLTISSLHAEDEADYYCASYDSSSGGVFGSGTRLTVLG
notes: scAb
Turning to B5, the binding result with tau fragment 1-49 was “binds”. Further, in [5], the equilibrium dissociation constant (Kd) stood at 3.6 nM, the koff was found to be 0.00987 s⁻¹ and the kon was 2.76e+06 M⁻¹ s⁻¹.

B6: S1E12 scAb (scFv, not shown: small tags and cut ends)
scFv: QVQLQESGPSLVKPSQTLSLTCTVSGFSLGSNSVGWVRQAPGKAPEWVAGIDTDGEEGYNPALNSRLSITRDTSKSQVSLSLSSVTSEDTAVYYCGRSYRADGLAYGYVQAIDYWGPGLLVTVSSEGKSSGASGESKVDDRVVRTQPSSVSGSLGQRVSITCSGSFIGISSVGWFQQLPGSGLRTIIVASDGRPSGVPDRFSMSKSGNTATLTISSLQAEDEADYFCGSSDRTQYTGVFGSGTRLTVLG
notes: scAb
B6 displayed an equilibrium dissociation constant (Kd) in assay [6] of 0.829 nM. Also, in [5], the Kd came to 0.829 nM, the koff is 0.000319 s⁻¹ and the kon came to 385000 M⁻¹ s⁻¹. In the assay with dGA (tau 297-390), this molecule displayed a Kd of 0.543 nM, a koff of 0.00163 s⁻¹ and a kon of 2.99e+06 M⁻¹ s⁻¹.

B7: CC7 scAb (scFv, not shown: small tags and cut ends)
scFv: QVQLQESGPSLVKPSQTLSLTCTVSGFSLTSNAVIWVRQAPGKAPEWVALIDVDGDAAYDPALKSRLSITRDTSKSQVSLSLRSVTTEDTAVYYCARDYGSWGYVSDIDYWGPGLLVTVSSEGKSSGASGESKVDDRVVRTQPSSVSGSLGQRVSITCSGSYITGSSVGWFQQVPGSGLKTVIYDNNDRPSGVPDRFSGSKSGDTATLTISSLQAEDEADYYCASYDTSNIGLFGSGTRLTVLG
notes: scAb
B7 displayed a Kd in [6] of 1.23 nM. Besides, in [5], the Kd worked out at 1.23 nM, the koff amounted to 0.000366 s⁻¹ and the kon amounted to 296000 M⁻¹ s⁻¹. Further, in assay [7], the LoD chemiluminescence detection stood at 3.33 ng/mL and the LoD colourimetric detection turned out to be 6 ng/mL. In [8], the affinity, expressed as Kd, was 1.2 nM.

B8: 412B9 (scFv)
scAb: QVQLQESGPSLVKPSQTLSLTCTVSGFSVISDSVAWVRQAPGKVPEWLGASGSSGNKYYNPALKSRLSITRDTSKSQVSLSLSSVTTEDTAVYYCARGIIAGVDVWGRGLLVSVSSEGKSSGASGESKVDDQAVLTQPSSVSGALGQRVSITCSGSSSNVGYGDYVGWYQQVPGSAPKLLIYGAASRASGVPDRFSGSRSGNTATLTISSLQAEDEADYYCASYDSSDGGVFGSGTRLTVLG
On to B8, for which the “EC50 (read off the curve)” value in assay [2] was around 2 µg/mL.

B9: E1B8 mAb (antibody, V domains shown)
VH: QVQLQESGPSLVKPSQTLSLTCTVSGFSLTNYPVGWVRQAPGKALEWIGNIENDGSANYASALKSRLSITRDTSKNQVSLSLSSATTEDTAVYYCGREFGGSDGYTYFVDIDYWGPGLLVTVSS
VL: QAVLTQPSSVSKSLGQSVSITCSGSSSNVGYGNYVSWFQQVPGSAPKILIYGATSRASGVPDRFSGSRSGNTATLTITSLQAEDEADYYCASYDGSSSGVFGSGTRLTVLG
In [4], B9 showed a Kd of 4.22 nM, a koff of 0.00137 s⁻¹ and a kon of 324000 M⁻¹ s⁻¹.

B10: 3aD3 scAb (scFv, not shown: small tags and cut ends)
scFv: QVQLQESGPSLVKPSQTLSLTCTVSGFSLTSNGVGWVRRAPGKVPEWVGDISSGGKVYGHPALKSRLSITRDTSKSQVSLSVSSVTSEDTAVYYCVRCRDGGVSYGYDSDYWGPGLLVTVSSEGKSSGASGESKVDDQAVVTQPSSVSKSLGQSVSITCSGSSSNVGYGDYVGWFQQVPGSAPKLLIYGVTERASGVPDRFSGSRSGNTATLTISSIQAEDEADYYCASYDDSSGGIFGSGTRLTVLG
notes: scAb
Consider B10, for which the binding result in the assay with tau fragment 1-49 is given as “binds”. Further, in assay [5], the Kd stood at 19.1 nM, the off-rate (koff) stood at 0.0104 s⁻¹ and the kon is 544000 M⁻¹ s⁻¹.
